The values that follow come from patent US20110081339A1 (Amgen, published 2011).

Like-named read-outs stand apart in the source and are kept apart here.

The target in assay [1] is T1, cynomolgus IL-17RA expressed on cells (cynomolgus).
T1 construct: whole, on cells; CHO cell line over-expressing cynomolgus IL-17RA (FACS); also called cyno IL-17RA; CHO-cynoIL-17RA
Briefly: FACS; inhibition of biotin-huIL-17A binding; MFI. (In flow cytometry, cells or beads pass a laser one at a time.)

The target in assay [2] is T1, cynomolgus IL-17RA expressed on cells. As to the kind of experiment: FACS; inhibition of biotin-huIL-17A binding; MFI. The source holds these as a separate data set.
Excerpt: The anti-IL-17RA antibodies were characterized. […] Anti-IL-17RA non-clonal hybridomas were selected for sub-cloning based on their performance in the CHO-IL-17RA FACS assay and HFF bioassay.
The target is the same in assay [3]. Briefly: cell-based or functional assay.
The target is the same in assay [4]. Briefly: FACS; inhibition of biotin-huIL-17A binding; MFI. The source holds these as a separate data set.
The target of assay [5] is Human IL-17RA full-length expressed on the surface of cells (human, UniProt Q96F46 33-866). As to the kind of experiment: cell-based or functional assay.

B1: IL-17RA mAb (AMH1/AML1) (antibody, V domains shown)
VH: QVQLQESGPGLVKPSETLSLTCTVSGGSISNYYWNWIRQSPGKGLEWIGDIYYSGSTNYNPSLKSRVTISVDTSKNQFSLKLSSVTTADTAVYYCARDGELANYYGSGSYQFYYYYGMDVWGQGTTVTVSS
VL: DILMTQSPSSLSASVGDRVTITCRASQGIRNDLGWYQQKPGKAPKRLIYAASSLQSGVPSRFSGSGSGTEFTLTISSLQPEDFATYYCLQHNSNPFTFGPGTKVDIK
notes: also called AM-1; AML1/AMH1
Take B1: the MFI in assay [1] came out at 11.

B2: IL-17RA mAb (AMH5/AML5) (antibody, V domains shown)
VH: QVQLQESGPGLVKPSETLPLTCTVSGGSIRSYYWSWIRQPAGKGLEWIGRIYRSGNTIYNPSLKSRVTMSIDTSKNQFSLTLSSVTAADTAVYYCARENYSESSGLYYYYGMDVWGQGTTVTVSS
VL: DIQMTQSPSSLSASVGDRVTITCRASQGIRNDLGWYQQKPGKAPKRLIYAASSFQSGVPSRFSGSGSGTGFTLTISSLQPEDFATYYCLQHNSYPPTFGQGTKVEIK
notes: also called AM-5; AML5/AMH5
B2 registered an MFI in assay [1] of 9.

B3: IL-17RA mAb (AMH11/AML11) (antibody, V domains shown)
VH: QVQLVESGGGVVQPGRSLRLSCATSGITFSSYGMHWVRQAPGKGLEWVAVIWYDGSNKYYADSVKGRFTISRDNSKNTLYLQMNSLRAEDTAVYYCARDTKDYWGQGTLVTVSS
VL: EIVMTQSPATLSVSPGERATLSCRASQSVSSNLAWYQQKPGQAPRLLIYGASTRAAGIPARFSGGGSGTAFTLTISNLQSEDFAVYYCQHYINWPKWTFGQGTKVDIK
notes: also called AM-11; AML11/AMH11
Take B3: the MFI in assay [1] is 9.

B4: IL-17RA mAb (AMH13/AML13) (antibody, IgG2, V domains shown)
VH: QVQLVESGGGVVQPGRSLRLSCAASGFTFSSYGMQWVRQAPGKGLEWVAVIWYDGNKKYYADSVKGRFTISRDNSKNTLYLQMNSLRAEDTAVYYCARGRVRDYYYGMDVWGQGTTVTVSS
VL: DIVMTQTPLSLSVTPGQPASIACKSSQSLLHSDGKTYLYWYLQKPGQPPQLLIYEVSTRFSGVPDRFSGSGSGTDFTLKISRVEAEDVGVFYCMQSIQLPLTFGGGTKVEIK
notes: From IgG2 XenoMouse mice; also called AM-13; AML13/AMH13
Molecule B4 registered an MFI in assay [2] of 6.

B5: IL-17RA human mAb having the heavy and light chain variable sequences (AMH14/AML14) (antibody, IgG2, V domains shown)
VH: QVQLVQSGAEVKKPGASVKVSCKASGYTFTRYGISWVRQAPGQGLEWMGWISTYSGNTNYAQKLQGRVTMTTDTSTSTAYMELRSLRSDDTAVYYCARRQLYFDYWGQGTLVTVSS
VL: EIVMTQSPATLSVSPGERATLSCRASQSVSSNLAWFQQKPGQAPRPLIYDASTRATGVPARFSGSGSGTDFTLTISSLQSEDFAVYYCQQYDNWPLTFGGGTKVEIK
notes: Fully human, from IgG2 XenoMouse mice; Only variable domains are tied to it in the description; also called AM-14; AML14/AMH14
Consider B5, for which the “IC50, cynomolgous IL-17A-induced IL-6 production from JTC-12 cells” value in assay [3] is approximately 1.2 nM. The MFI in assay [4] worked out at 10.

B6: IL-17RA mAb (AMH12/AML12) (antibody, IgG2, V domains shown)
VH: QVQLVQSGAEVKKPGASVKVSCKASGYTLTSYGISWVRQAPGQGLEWMGWISTYKGNTNYAQKLQGRVTMTTDTSTSTAYMELRSLRSDDTAVYYCARKQLVFDYWGQGTLVTVSS
VL: EIVMTQSPATLSVSPGERATLSCRASQSISSSLAWYQQKPGQAPRLLIYGASTRATGIPARFSGSGSGTEFTLTISSLQSENFAVYYCQQYDNWPLTFGGGTKVEIK
notes: From IgG2 XenoMouse mice; also called AM-12; AML12/AMH12
B6 returned an MFI in assay [2] of 6.

B7: IL-17RA mAb (AMH15/AML15) (antibody, V domains shown)
VH: QVQLVESGGGVVQPGRSLRLSCAASGFTFSSYGMQWVRQAPGKGLEWVAVIWYDGNKKYYADSVKGRFTISRDNSKNTLYLQMNSLRAEDTAVYYCARGRVRDYYYGMDVWGQGTTVTVSS
VL: EIVMTQSPATLSVSPGERVTLSCRASQSVSSNLAWFQQKPGQAPRPLIYDASTRAAGIPARFSGSGSGTDFTLTISSLQSEDFAVYYCQQYDNWPLTFGGGTKVEIK
notes: also called AM-15; AML15/AMH15
In turn, B7 showed an MFI in assay [4] of 6.

B8: IL-17RA mAb (AMH17/AML17) (antibody, V domains shown)
VH: QVQLVQSGAEVKKPGAAVKVSCKATGYTLTSYGISWVRQAPGQGLEWMGWISAYSGNTKYAQKLQGRVTMTTDTSTSTAYMELRSLRSDDTAVYYCARKQLVFDYWGQGTLVTVSS
VL: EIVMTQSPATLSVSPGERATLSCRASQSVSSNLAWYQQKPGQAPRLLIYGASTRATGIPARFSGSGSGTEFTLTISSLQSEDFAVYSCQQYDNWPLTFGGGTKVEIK
notes: From IgG2 XenoMouse mice; also called AM-17; AML17/AMH17
B8 had an MFI in assay [2] of 8.

B9: AMH14/AML14 (hybridoma) (antibody, V domains shown)
VH: QVQLVQSGAEVKKPGASVKVSCKASGYTFTRYGISWVRQAPGQGLEWMGWISTYSGNTNYAQKLQGRVTMTTDTSTSTAYMELRSLRSDDTAVYYCARRQLYFDYWGQGTLVTVSS
VL: EIVMTQSPATLSVSPGERATLSCRASQSVSSNLAWFQQKPGQAPRPLIYDASTRATGVPARFSGSGSGTDFTLTISSLQSEDFAVYYCQQYDNWPLTFGGGTKVEIK
On to B9, for which the “IC50 (read off the curve) (IL-17A-induced GRO-alpha production from HFF cells; blocked ligand m20)” value in assay [5] is approximately 0.01 µg/mL.

B10: IL-17RA mAb (AMH16/AML16) (antibody, IgG2, V domains shown)
VH: QVQLVQSGAEVKKPGASVKVSCKASGYTFTSYGISWVRQAPGQGLEWMGWISAYNGNTKYAQKLQGRVTMTTDTSTSTVYMELRSLRSDDTAVYYCARKQLVFDYWGQGTLVTVSS
VL: EIVMTQSPATLSVSPGERATLSCRASQSISTSLAWYQQKPGQAPRLLIYGTSTRATGIPARFSGSGSGTEFTLTISSLQSEDFAVYFCQQYDIWPLTFGGGTKVEIK
notes: From IgG2 XenoMouse mice; also called AM-16; AML16/AMH16
For the molecule B10, in assay [2], the MFI was 6.

B11: IL-17RA human mAb (AMH22/AML22) (antibody, IgG2, V domains shown)
VH: QVQLVQSGAEVKKPGASVKVSCKASGYTFTRYGISWVRQAPGQGLEWMGWISAYSGNTNYAQKLQGRVTMTTDTSTSTAYMELRSLRSDDTAVYYCARRQLYFDYWGQGTLVTVSS
VL: EIVMTQSPATLSVSPGERVTLSCRASQSVSSNLAWFQQKPGQAPRPLIYDASTRAAGIPARFSGSGSGTDFTLTISSLQSEDFAVYYCQQYDNWPLTFGGGTKVEIK
notes: Fully human, from IgG2 XenoMouse mice; also called AM-22; AML22/AMH22
Molecule B11 had an MFI in assay [1] of 18.

B12: IL-17RA mAb (AMH21/AML21) (antibody, IgG2, V domains shown)
VH: EVQLVESGGGSVQPGGSLRLSCAASGFTFSSYSMNWVRQAPGKGLEWVSIISSRSSIIHYADSVKGRFTISRDNAKNSLYLQMNSLRDEDTAVYYCARPKVGGGMDVWGQGTTVTVSS
VL: DIQMTQSPSSLSASVGDRVTITCRASQGISNYLAWYQQKPGKFPELLIYAASTLQSGVPSRFSGSGSGTDFTLTISSLQPEDVATYYCQKYNRAPFTFGPGTKVDIK
notes: From IgG2 XenoMouse mice; also called AM-21; AML21/AMH21
B12: the MFI in assay [4] is 6.
